T1: Saccharomyces cerevisiae Snf7 mutant (R52E) (Saccharomyces cerevisiae, UniProt P39929 1-240, R52E)
T1 sequence (looked up): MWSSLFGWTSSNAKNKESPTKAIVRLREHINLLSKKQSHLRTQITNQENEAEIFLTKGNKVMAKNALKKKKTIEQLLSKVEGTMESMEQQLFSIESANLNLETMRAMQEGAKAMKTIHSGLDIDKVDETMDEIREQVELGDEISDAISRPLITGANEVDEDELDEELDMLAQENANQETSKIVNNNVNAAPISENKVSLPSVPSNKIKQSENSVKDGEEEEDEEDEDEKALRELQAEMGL

B1: Saccharomyces cerevisiae Vps24 (natural protein, UniProt P36095 1-224, looked up)
chain: MDYIKKAIWGPDPKEQQRRIRSVLRKNGRNIEKSLRELTVLQNKTQQLIKKSAKKNDVRTVRLYAKELYQINKQYDRMYTSRAQLDSVRMKIDEAIRMNTLSNQMADSAGLMREVNSLVRLPQLRNTMIELEKELMKSGIISEMVDDTMESVGDVGEEMDEAVDEEVNKIVEQYTNEKFKNVDQVPTVELAANEEEQEIPDEKVDEEADRMVNEMRERLRALQN
B2: Saccharomyces cerevisiae Vps2 (natural protein, UniProt P36108 1-232, looked up)
chain: MSLFEWVFGKNVTPQERLKKNQRALERTQRELEREKRKLELQDKKLVSEIKKSAKNGQVAAAKVQAKDLVRTRNYIQKFDNMKAQLQAISLRIQAVRSSDQMTRSMSEATGLLAGMNRTMNLPQLQRISMEFEKQSDLMGQRQEFMDEAIDNVMGDEVDEDEEADEIVNKVLDEIGVDLNSQLQSTPQNLVSNAPIAETAMGIPEPIGAGSEFHGNPDDDLQARLNTLKKQT

Molecular target: T1, Saccharomyces cerevisiae Snf7 mutant …
Assay: co-sedimentation

Binder | binding result
B1 | binds
B2 | binds

Source: doi:10.1101/2024.03.13.584854 (bioRxiv, 2024)
